Measured values: the MegaScale stability set (Tsuboyama et al. 2023)

B1: 2M8U (parent)
chain: TKAQVIEAFKVFDRDGNGYVTVDYLRKVLNELGDMMPADEIEEMIYEADPQNSGYVQYETFVGMLFL

Variants of: B1
Test: folding stability dG (cDNA display proteolysis); higher = more stable
Details: PBS, room temperature

Folding stability dG [kcal/mol] of substitutions, site by site:
G16: K 3.04, L 2.97, M 3.04, N 3.36, P 2.11, Q 3.25, R 2.65, S 3.03, T 2.43, V 2.42, W 2.29, Y 2.49
N17: A 3.12, C 2.99, D 3.44, E 3.08, F 3.06, G 2.96, H 3.03, I 3.1, K 3.01, L 3.39, M 3.15, P 1.86, Q 3.12, R 3.04, S 4.02, T 3.95, V 3.27, W 2.95, Y 3
G18: A 2.63, C 2.87, D 2.28, E 2.38, F 2.65, H 2.17, I 2.57, K 2.53, L 2.92, M 2.62, N 2.23, P 2.71, Q 2.3, R 2.06, S 2.42, T 2.38, V 2.61, W 2.68, Y 2.36
Y19: A 2.7, C 2.74, D 2.21, E 2.63, F 3.66, G 1.95, H 2.94, I 3.21, K 3.07, L 3.26, M 3.3, N 2.75, P 1.9, Q 2.91, R 2.76, S 2.9, T 3.29, V 3.05, W 3.21
V20: A 2.73, C 3.04, D 2.73, E 2.16, F 2.47, G 1.83, H 1.98, I 3.62, K 1.46, L 2.9, M 2.59, N 2.76, P 2.1, Q 2.15, R 2.18, S 2.45, T 3.33, W 2.96, Y 1.85
T21: A 3.65, C 3.42, D 3.16, E 3.65, F 3.29, G 3.51, H 4.14, I 2.89, K 3.47, L 3.55, M 3.4, N 3.24, P 3.46, Q 3.7, R 3.74, S 3.64, V 3.05, W 3.22, Y 3.38
V22: A 2.95, C 2.88, D 1.76, E 2.47, F 2.52, G 2.36, H 3.5, I 3.48, K 3.3, L 3.49, M 3, N 2.76, P 2.22, Q 2.95, R 3.59, S 3.02, T 3.19, W 3.11, Y 3.44
D23: A 3.58, C 3.67, E 3.74, F 4.04, G 3.56, H 3.84, I 3.63, K 3.64, L 3.63, M 3.5, N 3.45, P 3.44, Q 3.65, R 3.33, S 3.55, T 3.65, V 3.54, W 3.66, Y 4.04
Y24: A 4.19, C 4.02, D 4.63, E 4.23, F 3.51, G 3.47, H 4.05, I 4.54, K 3.82, L 4, M 4.04, N 4.5, P 1.24, Q 4.33, R 3.94, S 4.27, T 4.42, V 4.38, W 3.24
L25: A 3.2, C 2.88, D 1.27, E 2.09, F 2.91, G 1.92, H 1.16, I 3.14, K 2.23, M 2.69, N 1.47, P 1.25, Q 2.02, R 2.26, S 1.72, T 2.65, V 3.01, W 2.53, Y 1.83
R26: A 2.49, C 2.88, D 1.78, E 2.14, F 3.31, G 1.92, H 3.19, I 3.22, K 3.37, L 3.38, M 3.44, N 2.59, P 1.55, Q 2.72, S 2.42, T 2.57, V 3.11, W 3.63, Y 3.53
K27: A 3.38, C 3.05, D 2.89, E 3.28, F 3.58, G 2.92, H 3.44, I 3.66, L 3.72, M 3.55, N 3.12, P 2.04, Q 3.53, R 3.48, S 3.2, T 3.26, V 3.62, W 3.42, Y 3.43
V28: A 2.63, C 2.6, D 0.754, E 1.63, F 2.86, G 2.32, H 2.17, I 3.32, K 2.47, L 2.71, M 2.65, N 1.84, P 1.37, Q 2.25, R 2.41, S 2.18, T 2.76, W 2.77, Y 2.78
L29: A 2.57, C 3.16, D 0.756, E 1.12, F 3.2, G 1.58, H 1.67, I 3.53, K 1.33, M 3.58, N 1.86, P 1.19, Q 1.4, R 1.52, S 2.06, T 2.46, V 3.28, W 2.91, Y 2.22
N30: A 3.62, C 3.37, D 3.72, E 3.4, F 3.65, G 3.6, H 3.52, I 3.36, K 3.59, L 3.64, M 3.63, P 2.6, Q 3.4, R 3.54, S 3.63, T 3.44, V 3.38, W 3.71, Y 3.57
E31: A 3.47, C 3.41, D 3.62, F 3.53, G 3.4, H 3.45, I 3.66, K 3.49, L 3.81, M 3.74, N 3.36, P 2.78, Q 3.53, R 3.51, S 3.64, T 3.58, V 3.49, W 3.64, Y 3.4
L32: A 2.77, C 2.76, D 1.84, E 2.04, F 3.66, G 2.16, H 2.96, I 3.52, K 2.5, M 3.21, N 2.53, P 1.83, Q 2.62, R 2.6, S 2.56, T 2.55, V 3.26, W 3.33, Y 3.28
G33: A 3.79, C 3.87, D 3.25, E 3.48, F 3.94, H 3.25, I 4.07, K 3.46, L 3.89, M 4.14, N 3.18, P 3.54, Q 3.37, R 3.51, S 3.28, T 3.81, V 3.83, W 3.55
